# ± gives the standard deviation.
# Experiment: protein stability index of a GFP-peptide fusion (GPS, HEK-293T) (PSI 1-6); higher = more stable
# [1] = treatment: DMSO, c terminus: a fixed tail appended
# [2] = treatment: MLN4924 1 uM, 8 h, c terminus: a fixed tail appended
# 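Further: 24-mer peptide tiles fused after GFP, lentivirally expressed, FACS-sorted into six equal bins by GFP/DsRed ratio, decoded by Illumina sequencing, PSI is the read-weighted mean bin number.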
Sequence,"protein stability index (treatment: DMSO, c terminus: native)","protein stability index (treatment: MLN4924 1 uM, 8 h, c terminus: native)",protein stability index [1],protein stability index [2]
PVSKPGALRRSLSRSMSQEAQRG [TCAP],3.19 ± 0.23,3.2 ± 0.37,,
ERYMCSRFFIDFPHIEEQQKKIES [TENT5D],,,3.21 ± 0.3,3.23 ± 0.16
LLTIGDANGEIQRHAEQQALRLEV [CARM1],,,3.53 ± 0.27,3.71 ± 0.11
ECKHPSVFQHGDNSFRLLFDVVVI [MCOLN1],,,2.9 ± 0.48,3.02 ± 0.71
TTTSAATATTAPPALDIFGDLFES [SNAP91],,,4.47 ± 0.1,4.68 ± 0.16
AGNCPECGTPLRKSNFRVQLFEDP [MNAT1],,,3.62 ± 0.33,4.08 ± 0.2
TVTSVSCCHGNTLLAVRSVTDEPV [NEK8],,,3.21 ± 0.23,3.14 ± 0.33
CMYEHGEDTHQSPEPEDEPGGPGA [RSPH3],,,5.42 ± 0.29,5.51 ± 0.17
LYPFQIHSIALSTFASLIGPFGGF [CDS1],,,3.36 ± 0.62,3.09 ± 0.36
RRVDFCKDPSAIGKKQVPCFASML [CASP6],,,2.43 ± 0.17,2.54 ± 0.23
PDNEQLMEEVISPRQVSYTPQHHE [IQUB],,,5.16 ± 0.4,5.32 ± 0.19
PSLQHLCRMSIRRVMPTQEVQELP [WSB1],,,3.34 ± 0.43,2.8 ± 0.35
EIERAIKQTQCPADPLQLNKALSI [FEM1C],,,3.42 ± 0.44,3.28 ± 0.16
MADVINVSVNLEAFSQAISAIQAL [MED27],,,2.38 ± 0.72,2.23 ± 0.17
VLGIPLTLVMFQSLGERMNTFVRY [KCNK9],,,3.24 ± 0.65,2.83 ± 0.48
MPAAGLAVQLRHAWNPEDRSLNVF [SPSB4],,,2.75 ± 0.14,2.95 ± 0.26
DLDDFAGFSCNQGRYPLIQTLRQE [CHIT1],,,3.44 ± 0.2,3.48 ± 0.082
AIKCSPSLHVDDRERMELLEEAKK [RIPK4],,,5.12 ± 0.65,5.28 ± 0.33
SYPVMGFEFQVRVCDSCYDSIKDE [WDFY1],,,2.76 ± 0.18,3.06 ± 0.39
TAHMLGVRELRIAFREFDRDRDGR [CABP4],,,3.68 ± 0.34,3.7 ± 0.076
LKTGNSSPGIGAVYLANQAKNQSD [RTP4],,,3.82 ± 0.14,3.97 ± 0.19
TDSDDDFDMSRYSSSGYSSAEINQ [FAM219A],,,5.04 ± 0.21,5.22 ± 0.37

Sequence,"protein stability index (treatment: DMSO, c terminus: native)","protein stability index (treatment: MLN4924 1 uM, 8 h, c terminus: native)",protein stability index [1],protein stability index [2]
EDAYKIRIRIDDEPANLDILDTAG [RIT1],,,3.38 ± 0.28,3.47 ± 0.65
NEKEKALQAQVQYQQQHEQQKKDL [SASS6],,,5.66 ± 0.2,5.48 ± 0.5
WLRVLNPDLVKGPWTKEEDQKVIE [MYBL2],,,2.61 ± 0.36,2.92 ± 0.18
FKSFQYPLPWSECPVVRNGSVAVV [SLC6A17],,,2.07 ± 0.29,2.09 ± 0.56
QPKCDNTARAHPAKARDLYKGRQL [SMOC2],,,4.26 ± 0.17,4.35 ± 0.19
DKSDQSLPNASADSLGGSQEMVQR [TRAF3IP2],,,5.36 ± 0.17,5.33 ± 0.34
ACIAYIRLTQYMDGSGMPKTMQSE [CAMK2D],,,2.88 ± 0.5,2.55 ± 0.59
DQKERCIIVRTTNKKYYKKFSIPD [DPCD],,,2.95 ± 0.21,3.06 ± 0.27
LASYLEKVRQLERDNAELENLIRE [KRT33B],,,3.31 ± 0.5,3.34 ± 0.36
KLPATMPEPVYFHCAAVTPAGCMY [KLHDC10],,,2.27 ± 0.23,2.08 ± 0.19
PESSALQPPPQSSEGLVGALMHVM [WAS],,,3.77 ± 0.17,3.58 ± 0.56
ARSPSGPSGSLENGTKADGKDAKT [TRIM29],,,5.4 ± 0.19,5.54 ± 0.094
VFSDTATPDIKSHYAFRIFDFDDD [CIB1],,,3.19 ± 0.27,3.18 ± 0.42
TARAHPAKARDLYKGRQLQGCPGA [SMOC2],,,3.23 ± 0.64,4.41 ± 0.57
DLPSSTPVANSGTKPKTTAIQGIS [DLC1],,,4.75 ± 0.2,4.93 ± 0.065
TSGKRYVYRFVCDLQNLLGFTPEE [ETS2],,,2.56 ± 0.63,2.89 ± 0.84
TEFRKGAQSLPGPCAAAREGRLER [IRX6],,,4.53 ± 0.17,4.62 ± 0.21
GKTMELFCQTDQTCICYLCMFQEH [TRIM29],,,2.34 ± 0.064,2.33 ± 0.25
SCKACGYRGMLDTHHKLCTFILKN [EIF5],,,2.55 ± 0.35,2.77 ± 0.46
ALVVPKGNTAVSVLMLLVALLFTG [SCAMP3],,,2.98 ± 0.75,2.62 ± 0.45
DQLLLATGLNNGRIKIWDVYTGKL [WSB1],,,2.17 ± 0.29,2.17 ± 0.31
EGPGEQETKLDLISKGEEPRAGKE [SLC29A1],,,5.68 ± 0.21,5.43 ± 0.21

Sequence,"protein stability index (treatment: DMSO, c terminus: native)","protein stability index (treatment: MLN4924 1 uM, 8 h, c terminus: native)",protein stability index [1],protein stability index [2]
NRKRECGNAHYQRADFVLAANSYD [FKBP8],,,3.33 ± 0.35,3.68 ± 0.29
KDLVMYSKCQRLFRSPSMPCSVIR [CDC25B],,,2.2 ± 0.18,2.73 ± 0.34
LRLCRLWPRNPPSRLLGAAAGQRS [DNAJC4],,,2.75 ± 0.54,2.7 ± 0.39
KEAKTKYPNYEFISDNSISWSAGL [FUT8],,,2.52 ± 0.25,2.95 ± 0.23
GWAKHIPGFSTLSLADQMSLLQSA [ESRRG],,,2.31 ± 0.22,2.5 ± 0.16
AMLKALLGSKHKVCMDLRANLKQV [TNNI2],,,2.42 ± 0.18,2.33 ± 0.43
FDVHPPLGKMLIGLAGYLSGYDGT [POMT2],,,2.18 ± 0.19,2.17 ± 0.13
LGPSRDPDPLNICVFILLLVFIVV [RTP4],,,3.8 ± 0.48,2.77 ± 0.41
FGFAQILIPGDAYTDYVATRWYRA [CDKL4],,,2.31 ± 0.58,2.84 ± 0.76
LICAISHTHRAHTVVPLDDATQEY [TRIM39],,,2.59 ± 0.19,2.51 ± 0.38
NLLPAAGELQESGLALCPEVQDLL [SMG5],,,4.26 ± 0.21,4.31 ± 0.13
EFVTLKAIALANSDSMHIEDVEAV [ESRRG],,,3.39 ± 0.38,3.31 ± 0.29
EQLLDVKLALDMEISAYRKLLQGE [LMNB1],,,3.02 ± 0.45,3.13 ± 0.55
DDVISRIDRMFPEMSIHLSRPNGT [MED27],,,3.25 ± 0.24,3.36 ± 0.25
MSCRDRTQEFLSACKSLQTRQNGI [STX5],,,3.1 ± 0.21,3.1 ± 0.36
LALPPGAEHWTKEHCGAVCFVKDN [WAS],,,3.35 ± 0.23,3.45 ± 0.59
PAPATQMPSTPGFVGYNPYSHLAY [SMARCE1],,,2.37 ± 0.21,2.44 ± 0.27
GERVAARGYWGDIATGPFVAFGIE [DNAAF3],,,2.05 ± 0.3,2.35 ± 0.28
TCVYIAEIAPQHRRGLLVSLNELM [SLC2A12],,,2.73 ± 0.6,2.46 ± 0.56
DLMGVLTKGVREVERALQLPREPG [FEM1A],,,2.82 ± 0.17,2.69 ± 0.37
FYSNLILQHEERETRQKKLEVAME [STK38L],,,3.08 ± 0.2,3.08 ± 0.33

# From the supplement of paper PMC10567573
